Experimental data taken from the DeepSol protein solubility set.

Assay: soluble on expression in E. coli; label from the status in PepcDB or PDB records

| Sequence | soluble on expression in E. coli |
| --- | --- |
| MGSDKIHHHHHHMAKEKKSRDTQKKIFVLDTSVIIYDHNAVKNFEEHDLAIPITVLEELDNFKKGNDIKNFEAREFTRFLDELAADSASLQDWIQLEGRDKGKLKVIMNTHGTKETDAEKIFDDRKNDHKILNAAISVQAENPDKKVILVSKDINLRLKAKSLNIPSEDYNTGKVKDIDLLYTGHTTIENVAPEKINELYEKGYCDIDAIPEQDVSKNHYYILKSVKSSALAYYNPVDKRLEHVGKTPAYGIKPRNAEQAFAIHAVLDPHIKLVSIQGVAGTGKTLIALAATLEQRKDFKQIFLARPIVPLSNKDIGYLPGDIKSKLNPYMEPLFDNLKFIQNQFNETDQDYQRITDMVNKEKLVITPLAYIRGRSLSNIVFIVDEAQNLTPHEVKTIISRAGENCKIIFTGDIFQIDTPYLDSESNGLSYLIDRLKNQDLYAHITLEKGERSELANLANELL | not soluble |
| QVQLQQSGAELVRPGVSVKISCKGSGYTFTDYGMHWVKQSHAKSLEWIGIISTYSGDASYNQKFKGKATMTVDKSSSTAYMELARLTSEDSAIYYCARSSTWYYFDYWGQGTTLTVSSAKTTAPSVYPLAPVCGDTTGSSVTLGCLVKGYFPEPVTLTWNSGSLSSGVHTFPAVLQSDLYTLSSSVTVTSSTWPSQSITCNVAHPASSTKVDKKIEPR | soluble |
| MRTLRIGIVGLGGIAQKAWLPVLTNTAGWTLQGAWSPSRDKALRICESWRIPYVDSLANLASSCDAVFVHSSTASHYAVVSELLNAGVHVCVDKPLAENLRDAERLVALAAQKKLTLMVGFNRRFAPLYRELKTRLGTAASLRMDKHRTDSVGPHDLRFTLLDDYLHVVDTALWLAGGEARLASGTLLTSESGEMCYAEHHFSADKLQITTSMHRRAGSQRESVQAVTDGGLYDVTDMREWREERGQGILIKPIPSWQTTLEQRGFVGCARHFIDCVQNQTVPETAGEQAILAQRVVEALWRDAISE | not soluble |
| MRFKVGIEFDESLELPFNYNKILQGFIYRNIMDKDLARFIHDRGFSYEKRKYKMFTFSRLQGKFSIDSKKKKIIYQSPVELVVSSCYEDFFIDLSLSLLRRDVEIAGHKAYVSKMDIIMEEPKSIQKIRMLSPVTAYSTLDDKRTVYFSPYNHDFKRIIKENLIKKYKAFYKDDSKDNVDFDIELVSDKYAKVISSYDGFIIEGWMGDFVLKGDQEVIKLAYDAGIGGKNSQGFGCFKLI | soluble |
| MSLELVSFVKSHIDQAVYFSTITSNPIEFNLPESLSLDTTDIENDIKTSCDEIFYSTGSYIPPMLNTLEQHLNLRIEYFNNLIEFTKINFNYKISPTVKLYLIEKISILKCCLALFKYISDKAILSNIWRDLVLNSFNDSSLEEFVLGKLDEFPRLFTIFLNDLSAKIVGFNDVEEKVKIVDLLITCVYDAVLENCEKSIRYDALQLDPLELDNKPMWFTNLTNIKAMNNIFFSFIFPDNDLSVENKQRLLTVVKLLYYVINQNMIWHKSMKQIETEEYKEVEALYNDNHANWIHVLCNIGVHEEALQICEFYHDLGGLVEILEKLDFEISRELYDQYFKMFGYEFATILFEYYINAKDLKALFFKFPNHHDLLNKFLLSSPPKYYKYAWIQEIIDNDYRKASDILTTLSVGEAGDGCEISERQLHLNIAKLSGLVDENFDANQMIEIQRDIDTIDHQTRIKKLLEEDPTGISMNQAFANNEFGEKFQETKYCIQNDKSINIKYIIDMLSMMDSVENLYEALKLTCIYRHSLGYEVSKYFQQSIWRRCIIEESKDGVIQLEGENSKIYQLLVKYFEGKLYEYDCKLPFVSFLMDRIGISMNFLSIIYGNDNNVLVSISDSIEREYHDLIRIGDTLESQLSTIIGSANEGHHHHHH | not soluble |
| MGSDKIHHHHHHMYNYPFENFDFIDFWDDDEYAMNEYIGAPPTEEMIEETERELGYKLPESYIWLMKQHNGGIPFNVCFPCDEPTSWADDHVAITGIMGVDKDKIYSLCGQLGSRFMIEEWGYPDIGVAICDCPSVGHDMIFLDYRECGPQGEPKVVHVDQEDDYYVTFLADNFEEFIRGLVNEEVFDTSEEDERMELEKVRNAAFSPLLSDLCAKCDHPVDTERWIRKISEEIVTDKGFFALHADERSYLLYDIQLWLYTNVYPDTTEEDYLSAYKKIIALDGEFSTGGYASDFVTDWLTRRKESGMVTCNDGILSMAAGTKEALLANRELISNKEQ | not soluble |
| MAHHHHHHMDKQAERGQSAGPVKTPQGTQPPAHNYTYHTNAAQRAVYDYLKNVKPIPELAEPKTYKTYEEASVEAVLYPIIEKHQVIMVAGAFFGDEGKGKTVNAVANHPGCTFIARVNSGENAGHTVYDDAGRKFVFNLAPSGLLSKGKRNYVGPECVMDPISFMENEVKQLIEANVPYKEQLFIGNVSIVTPYHKLLDLLASAPNSSTLKGMAPIHASKVTKRGIRLDHIFNDQSVLRSRLRKDIDTYFGFLKVKGLSDADVLRRCEKENGDGVVRVPPYVVEFVQAEDKVEYLVKLYMDRVRNNKNFPARCDVAHELRSALSRGEKVMLEGPQSYWLSNAREKFWESTTSADTTASGLLATAQYNFQLYSSVVINVHKAPGSSRVGVGANPSSFVAQDYFSATGVKTLRDLPENMCVDFDSIQKLFFTKAFHPETKEYNGIWEPLEFEDSTGKYNIGVAMAVASSRQHGECGAVTKKPRVCGFFDCVLQYEVNAVQGPYLSISALDRGDDYDKLGVTIAYVYYNGKNDEVLNINGREYKNGDIIKAGEAVPGEVALYYCHPIVKLINGWKQTPIAASKRKPGDPLPRGVCEFLSTVEYFTKAKIISIGNGPRGKDIIYIKQ | not soluble |
| DKELFFINVYDITASKKAERELIESEEKFKQVVELSVDGIIIGTDSGKIVDCNGAACRIFGYDKEEILKLQVIDLFPGDLNIIAHDITSCNKAAGEKTVERINQKKDGTSFPAEVAARRVKLGN | not soluble |
| MSLDLREYSTDHQKIKRIEFNCKSKNNTLDGLLTPEEIVAEAKRQGHSAVGISDYNSIFSFPEFYYAAKANNIKPIYGAGFAMLEDTNGAFLTEFQNQDLITGRYVVFDIETTSLSAYHGEIIEFAATIIENKAVVDKVDIFIKSKEKLSHFTTRLTSITNEMLDQKGIELKEALQKIYDVMNNNVAVAHNANFDYNFLIEKFDQNNMQAPKCTFIDSLVVSRILFEHRDKHNLNEFCRNMSVNYDTEKAHRALYDTEVLADAWIEATLKMKDIKQISNFQELSEYKSDALFSKYFSLYINTVVKNQAGLKELFQLVSIANTKTFYGAPKIFWSTLKSFKNILVGSNGVQGELFDIMMLSSRQRVEKYIQKLDYIEIPHPDLFDSYLDRNQLTKDQLLESLQILISLAKKHNKLIISTAEPRYRHKGDREIFKVLTSFPIRDKRHFLWNYKAVKAGNYSVPNFYFLTTDEMLDAFSFLKDKSLIEDIVVNNAHKLNNLIDENIEVIKTDLYPPSIKNSSELLKDLVYKNAKKKYGEVLPKLVQDRIDKELIPIINYKFDVVYWISHILVKKANDDGYVVGSRGSVGSSLIANLINITEVNPLEPHYICDNCKHFEVVNNDKITSGYDLDDKNCPNCDSIMDKDGHSIPFETFLGFKADKVPDIDLNFSGEYQIAIHNYTRELFGEDKTFRAGTVSSIQYRKAFGFIKKYIEDTNTFYSNGFIDYLAEKCIDVKVTTGKHAGGIVVLPENLDIEEFTPVNYASDGLEDKEWKTTHFKYDFLKENLLKLDLLGHSDPTQIRFLEQATGLLSKNIPKKDKNLLKLFSSTEPMEIDPNDINGETTGAIALPEFGTKFTREIIKTSKPHLFADLISISGLSHGQNVWKNNAEDLILNENKTLNEIVCCRDDIMNYLIKKGVDASLSFKVTESVRKGKGVDSEDIKILSTYNIPDWFFDSMQKIKYMFPRAHAVAYVIMAWRMGYYKLYYPLEFYASFFSVKCSKFDLSAMIDFSKDGYWKIKNKIEEIEKLIRTNNKKDNKKEEDILESLNVALEMYSRGFTIQNIDIEKSDAYNWIIDKDSKSLIPPFSALDGIEAGAIKIINARKERPFKTVLDFAKRSGVSSTIVEKLKELNVFKDLPESEQLSLFGEGHHHHHH | soluble |
| SNAMLTFYEYPKCSTCRRAKAELDDLAWDYDAIDIKKNPPAASLIRNWLENSGLELKKFFNTSGQSYRALGLKDKLHQLSLDEAANLLASDGMLIKRPLLVKEGKIVQIGYRTAYEDLDF | soluble |
| MQPYWAAIEADIERYLKKSITIRPPETVFGPMHHLTFAAPATAASTLCLAACELVGGDRSQAMAAAAAIHLVHAAAYVHEHLPLTDGSRPVSKPAIQHKYGPNVELLTGDGIVPFGFELLAGSVDPARTDDPDRILRVIIEISRAGGPEGMISGLHREEEIVDGNTSLDFIEYVCKKKYGEMHACGAACGAILGGAAEEEIQKLRNFGLYQGTLRGMMEMKNSHQLIDENIIGKLKELALEELGGFHGKNAELMSSLVAEPSLYAAHHHHHHHH | soluble |
| GIVPYGGNLTVLDLVQKYIGQKKGVRHNTQANYDFVINIIKKEEFGTRRIDKIKLSDAKAWFIKLQADGRGYSSIHSVRGIVRPAFQMAVEDDLLRKNPFEFQLCTVVVNDSVTRQAITKEQEELFLEFIRNDDHYSKYYNGMFILFKTGLRISEFCGLTVKDIDLQERKINVNHQLQRTRGMQYVIEDTKTSSGTRMLPMTDEVYECFEQIVKNRKKVRVEPIVDGYSRFLFLDKKDMPEVALHWEKHFQWALGKYNRTHEEQMPKITPHVCRHTYCSNMAKAGMNPKALQYLMGHSDIGVTLNVYTHLGLIDAKEEMNRIAKLA | not soluble |
| MGSDKIHHHHHHMLTQDQDQKQRNWKPIIKAFEAVLGTNGVVQRREELITYECDGLTSYRQRPAVAVLPRTTEQVAAVVKICNQYAVPFIARGSGTGLSGGALPSEDSVLIVTSLMRQILNVDLDNQRIVVQPGVINSWVTQTVSGAGFYYAPDPSSQIICSIGGNVAENSGGVHCLKYGVTTNHVLGLKIVTPEGEIVDLGGQIPEAPGYDLTGIFVGSEGTLGIATEITLRILKSAESICVLLADFTSVEAAGATVSDIISAGIIPGGMEMMDNVSINAVEDVVATNCYPRDATAILLVEIDGLDVEVAVNKQRVTDICQQNGARSVTSASDPETRLKLWKGRKAAFAAAGHLSPDYYVQDGVIPRTQLPYVLQEIEALSQKFGYPIANVFHAGDGNLHPLILFDNSISGALEKVEELGGEILKLCVRVGGSISGEHGIGADKKCYMPDMFSDVDLETMQWIRQVFNPQGLANPGKIFPTPRTCGEAANAIKNQHFEGVERF | not soluble |
| MAHHHHHHMCLSTCLLYLKQIREDSQYVIISRIDHKTCYKCISFCNLKYFVVDMIYKNEELYTDLEGIEKLLEEYKEKICCVMSATSVYAPRNSDDIIKIAHICKKYNTPHIINNAFGLQCTYICKEIQKCFESQGRVDFVVQSCDKNFLVPVNGGIIFSSNREQMKLLKKSYPGRTPVNAYLDLFITLLEMGKDKIMNLRKERVDNFNWLKEKIQLLCLKYNLELIKTSKNFISMAINLNHMYTHCNTDNPKVINMLGSMLFYRNVTGHRVICSPLLNRNYLLKKAREKYMNMLENKKGNDAMMITSNESNEENVKRDLSKKEADIYDNMYSNGFDEIKSVENDMLQNKSNIIKAYEKQIEEEFDKLNEPNTIVIGNHKFKNFGSSYNSYPISYIAFSCVVGIERPELENFVSKLDNAIDYFIKFFKKKKEEELK | not soluble |
| MARCSVCGAPAVAYIRYQRRYLCRDHYLEFVESKVERAIMRHRLVGKGDRVLAAVSGGKDSSTLLAVLSRLSRRIGFHVVALYIHLGIYEYSEKSREASIRLASQLDVPLIVFDLNEVLGAGIPELAKASKRPPCSVCGMVKRYVINAAAVELGVDAVALGHNADDIAVYNLKSFLNQDLEAISKLGVKTESIPGVAVGRVRPLYYVYEKESFLYSLLAGLPFLHEEC | not soluble |
| MAHHHHHHMESPEADEAFSKSLDAKVDDLFARIPLPQDPMKVALALTDEEAREEAATELVKEAVREMYWRKLGAKQAEELRLKKAQEKLQKQGAIQYFEERREEERLREHENTQFAAQPLAVEPQSPVGKGVTASPLQNLDSTLSAEELRKELAAMKANVSRLEELLRYKT | soluble |
